# Assay results as given in the supplement of paper PMC10567573.
# B1: PSD2 (parent)
# chain: LTHFSRRYCQCNPDDSTSEDGIHT
# Variants of: B1
# Experiment: protein stability index of a GFP-peptide fusion (GPS, HEK-293T) (PSI 1-6); higher = more stable
# Conditions: c terminus: a fixed tail appended
# 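Also: lentivirally expressed fusions sorted by FACS into six bins by GFP to DsRed ratio, PSI derived from sequencing read proportions per bin multiplied by bin number.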
row,Variant,protein stability index
1,LTHFSRRYEQCNPDDSTSEDGIHT [C9E],4.16
2,LTHFSRRYGQCNPDDSTSEDGIHT [C9G],4.15
3,LTHFSRRYLQCNPDDSTSEDGIHT [C9L],3.67
4,LTHFSRRYIQCNPDDSTSEDGIHT [C9I],3.96
5,LTHFSRRYRQCNPDDSTSEDGIHT [C9R],4.1
6,LTHFSRRYWQCNPDDSTSEDGIHT [C9W],3.57
7,LTHFSRRYAQCNPDDSTSEDGIHT [C9A],4.23
8,LTHFSRRYHQCNPDDSTSEDGIHT [C9H],3.84
9,LTHFSRRYYQCNPDDSTSEDGIHT [C9Y],4.06
10,LTHFSRRYKQCNPDDSTSEDGIHT [C9K],4.39
11,LTHFSRRYFQCNPDDSTSEDGIHT [C9F],3.83
12,LTHFSRRYNQCNPDDSTSEDGIHT [C9N],4.09
13,LTHFSRRYTQCNPDDSTSEDGIHT [C9T],4.12
14,LTHFSRRYCQCNHDDSTSEDGIHT [P13H],2.76
15,LTHFSRRYCQCNGDDSTSEDGIHT [P13G],3.91
16,LTHFSRRYCQCNQDDSTSEDGIHT [P13Q],3.06
17,LTHFSRRYCQCNADDSTSEDGIHT [P13A],2.83
18,LTHFSRRYCQCNDDDSTSEDGIHT [P13D],4.03
19,LTHFSRRYCQCNLDDSTSEDGIHT [P13L],2.71
20,LTHFSRRYCQCNYDDSTSEDGIHT [P13Y],2.44
21,LTHFSRRYCQCNRDDSTSEDGIHT [P13R],3.19
22,LTHFSRRYCQCNIDDSTSEDGIHT [P13I],2.68
23,LTHFSRRYCQCNVDDSTSEDGIHT [P13V],3.11
24,LTHFSRRYCQCNMDDSTSEDGIHT [P13M],3.2

row,Variant,protein stability index
1,LTHFSRRYCQCNTDDSTSEDGIHT [P13T],3.5
2,LTHFSRRYCQCNFDDSTSEDGIHT [P13F],2.68
3,LTHFSRRYCQCNWDDSTSEDGIHT [P13W],1.94
4,LTHFSRRYCQCNNDDSTSEDGIHT [P13N],3.38
5,LTHFSRRYCQCNCDDSTSEDGIHT [P13C],2.73
6,LTHFSRRYCQCNKDDSTSEDGIHT [P13K],3.02
7,LTHFSRRYCQCNSDDSTSEDGIHT [P13S],2.84
8,LTHFSRRDCQCNPDDSTSEDGIHT [Y8D],4.72
9,LTHFSRRKCQCNPDDSTSEDGIHT [Y8K],3.66
10,LTHFSRRECQCNPDDSTSEDGIHT [Y8E],5.36
11,LTHFSRRCCQCNPDDSTSEDGIHT [Y8C],3.01
12,LTHFSRRPCQCNPDDSTSEDGIHT [Y8P],4.36
13,LTHFSRRRCQCNPDDSTSEDGIHT [Y8R],3.7
14,LTHFSRRHCQCNPDDSTSEDGIHT [Y8H],3.88
15,LTHFSRRGCQCNPDDSTSEDGIHT [Y8G],3.57
16,LTHFSRRLCQCNPDDSTSEDGIHT [Y8L],3.86
17,LTHFSRRQCQCNPDDSTSEDGIHT [Y8Q],3.98
18,LTHFSRRTCQCNPDDSTSEDGIHT [Y8T],4.18
19,LTHFSRRACQCNPDDSTSEDGIHT [Y8A],3.75
20,LTHFSRRNCQCNPDDSTSEDGIHT [Y8N],4.74
21,LTHFSRRWCQCNPDDSTSEDGIHT [Y8W],2.36
22,LTHFSRRICQCNPDDSTSEDGIHT [Y8I],3.48
23,LTHFSRRMCQCNPDDSTSEDGIHT [Y8M],3.62
24,LTHFSRRFCQCNPDDSTSEDGIHT [Y8F],3.27

row,Variant,protein stability index
1,LTHFSRRVCQCNPDDSTSEDGIHT [Y8V],3.8
2,LTHFSRRSCQCNPDDSTSEDGIHT [Y8S],3.93
3,LTHFSRRYCQCNPMDSTSEDGIHT [D14M],2.27
4,LTHFSRRYCQCNPGDSTSEDGIHT [D14G],2.35
5,LTHFSRRYCQCNPNDSTSEDGIHT [D14N],2.45
6,LTHFSRRYCQCNPCDSTSEDGIHT [D14C],2.8
7,LTHFSRRYCQCNPWDSTSEDGIHT [D14W],1.59
8,LTHFSRRYCQCNPEDSTSEDGIHT [D14E],3.02
9,LTHFSRRYCQCNPPDSTSEDGIHT [D14P],2.06
10,LTHFSRRYCQCNPSDSTSEDGIHT [D14S],2.49
11,LTHFSRRYCQCNPRDSTSEDGIHT [D14R],2.24
12,LTHFSRRYCQCNPTDSTSEDGIHT [D14T],2.13
13,LTHFSRRYCQCNPFDSTSEDGIHT [D14F],2.04
14,LTHFSRRYCQCNPKDSTSEDGIHT [D14K],2.49
15,LTHFSRRYCQCNPQDSTSEDGIHT [D14Q],2.54
16,LTHFSRRYCQCNPADSTSEDGIHT [D14A],2.09
17,LTHFSRRYCQCNPYDSTSEDGIHT [D14Y],1.99
18,LTHFSRRYCQCNPVDSTSEDGIHT [D14V],2
19,LTHFSRRYCQCNPLDSTSEDGIHT [D14L],2.13
20,LTHFSRRYCQCNPIDSTSEDGIHT [D14I],2.08
21,LTHFSRRYCQCNPHDSTSEDGIHT [D14H],2.14
22,LTHFSRRYCDCNPDDSTSEDGIHT [Q10D],3.84
23,LTHFSRRYCTCNPDDSTSEDGIHT [Q10T],3.35
24,LTHFSRRYCLCNPDDSTSEDGIHT [Q10L],2.63

row,Variant,protein stability index
1,LTHFSRRYCPCNPDDSTSEDGIHT [Q10P],3.41
2,LTHFSRRYCNCNPDDSTSEDGIHT [Q10N],2.18
3,LTHFSRRYCYCNPDDSTSEDGIHT [Q10Y],3.01
4,LTHFSRRYCICNPDDSTSEDGIHT [Q10I],1.97
5,LTHFSRRYCRCNPDDSTSEDGIHT [Q10R],2.24
6,LTHFSRRYCWCNPDDSTSEDGIHT [Q10W],2.51
7,LTHFSRRYCACNPDDSTSEDGIHT [Q10A],3.72
8,LTHFSRRYCMCNPDDSTSEDGIHT [Q10M],2.19
9,LTHFSRRYCHCNPDDSTSEDGIHT [Q10H],2.88
10,LTHFSRRYCVCNPDDSTSEDGIHT [Q10V],2.9
11,LTHFSRRYCFCNPDDSTSEDGIHT [Q10F],2.25
12,LTHFSRRYCSCNPDDSTSEDGIHT [Q10S],2.55
13,LTHFSRRYCECNPDDSTSEDGIHT [Q10E],3.87
14,LTHFSRRYCGCNPDDSTSEDGIHT [Q10G],3.21
15,LTHFSRRYCKCNPDDSTSEDGIHT [Q10K],2.71
16,LTHFSRRYCCCNPDDSTSEDGIHT [Q10C],2.63
17,LTHFSRRYCQCNPDDSESEDGIHT [T17E],3.41
18,LTHFSRRYCQCNPDDSCSEDGIHT [T17C],2.72
19,LTHFSRRYCQCNPDDSDSEDGIHT [T17D],4.02
20,LTHFSRRYCQCNPDDSGSEDGIHT [T17G],2.7
21,LTHFSRRYCQCNPDDSASEDGIHT [T17A],3.02
22,LTHFSRRYCQCNPDDSFSEDGIHT [T17F],2.77
